Here are results for 14 substances from PMC5429695.

One experiment deals with RfDoc1a, group 1a dockerin, thioredoxin A fusion, wild type (R. flavefaciens FD-1). Nature of the experiment: ITC; 308 K; dockerin in the cell (stirred at 307 revolutions/min) titrated with 28 injections of 10 uL cohesin at 220 s intervals; proteins in 50 mM HEPES pH 7.5, 0.5 mM CaCl2, 0.5 mM TCEP; single-site model.
For orientation: stoichiometry N means a count of units in the complex or per binding partner. Substance “RfCohScaA, ScaA cohesin with C-terminal hexa-histidine tag (domain or fragment)” yielded a Ka of 5.03e+08 M⁻¹, a dH of -38.9 kcal/mol and a stoichiometry N of 1.

In the case of “RfCohScaB3 E84A + H121A, C-terminal hexa-histidine tag (domain or fragment)”, the Ka came out at 1.65e+06 M⁻¹, the dH was -66.9 kcal/mol and the stoichiometry N stood at 1.

The substance “RfCohScaB3 E84A + N124A, C-terminal hexa-histidine tag (domain or fragment)” registered a Ka of 1.53e+07 M⁻¹, a dH of -55 kcal/mol and a stoichiometry N of 1.

“RfCohScaB3 E84A, C-terminal hexa-histidine tag (domain or fragment)” gave a Ka of 3.62e+07 M⁻¹, a dH of -55.5 kcal/mol and a stoichiometry N of 1.

Substance “RfCohScaB3 H121A + N124A, C-terminal hexa-histidine tag (domain or fragment)” came in with a Ka of 2.28e+06 M⁻¹, a dH of -46.4 kcal/mol and a stoichiometry N of 1.

Turning to “RfCohScaB3 H121A, C-terminal hexa-histidine tag (domain or fragment)”, the Ka is 2.66e+07 M⁻¹, the dH was -52.6 kcal/mol and the stoichiometry N was 1.

For the substance “RfCohScaB3 K77A, C-terminal hexa-histidine tag (domain or fragment)”, the Ka is 4.23e+08 M⁻¹, the dH is -57.4 kcal/mol and the stoichiometry N turned out to be 1.

“RfCohScaB3 L79A, C-terminal hexa-histidine tag (domain or fragment)” had a Ka of 7.59e+06 M⁻¹, a dH of -51.9 kcal/mol and a stoichiometry N of 1.

“RfCohScaB3 N68A, C-terminal hexa-histidine tag (domain or fragment)” returned a Ka of 1.1e+08 M⁻¹, a dH of -58.6 kcal/mol and a stoichiometry N of 1.

“RfCohScaB3 N75A + E84A, C-terminal hexa-histidine tag (domain or fragment)”: the Ka is 2.08e+07 M⁻¹, the dH was -51.8 kcal/mol and the stoichiometry N is 1.

Consider “RfCohScaB3 N75A + H121A, C-terminal hexa-histidine tag (domain or fragment)”, for which the Ka worked out at 2.49e+06 M⁻¹, the dH was -50.8 kcal/mol and the stoichiometry N is 1.

“RfCohScaB3 N75A + N124A, C-terminal hexa-histidine tag (domain or fragment)” yielded a Ka of 1.86e+06 M⁻¹, a dH of -56.3 kcal/mol and a stoichiometry N of 1.

With “RfCohScaB3 N75A, C-terminal hexa-histidine tag (domain or fragment)”, the Ka was found to be 9.09e+07 M⁻¹, the dH is -52.7 kcal/mol and the stoichiometry N turned out to be 1.

In turn, “RfCohScaB3 N124A, C-terminal hexa-histidine tag (domain or fragment)” displayed a Ka of 5.54e+07 M⁻¹, a dH of -52.8 kcal/mol and a stoichiometry N of 1.

A further experiment concerns the target RfDoc1b, group 1b dockerin, thioredoxin A fusion, wild type (R. flavefaciens FD-1). The description is as above.
“RfCohScaA, ScaA cohesin with C-terminal hexa-histidine tag (domain or fragment)”: the Ka came out at 2.67e+07 M⁻¹, the dH is -61.2 kcal/mol and the stoichiometry N came to 1.
